Laboratory results published in paper PMC6730670.

Biological target: Yn-ABHD5 (UniProt Q9DBL9)
Assay: split reporter

Chain of Yn-ABHD5 (Q9DBL9 whole entry): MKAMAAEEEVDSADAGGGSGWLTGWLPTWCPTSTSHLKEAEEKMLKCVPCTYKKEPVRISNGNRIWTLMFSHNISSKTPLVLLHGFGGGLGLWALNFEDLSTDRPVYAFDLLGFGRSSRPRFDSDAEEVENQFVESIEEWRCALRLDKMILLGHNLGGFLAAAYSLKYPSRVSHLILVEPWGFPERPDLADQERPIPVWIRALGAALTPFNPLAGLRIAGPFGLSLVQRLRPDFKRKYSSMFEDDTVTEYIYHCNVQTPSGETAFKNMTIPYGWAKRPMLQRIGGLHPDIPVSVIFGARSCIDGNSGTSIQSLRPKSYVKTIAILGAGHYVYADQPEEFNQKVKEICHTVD

PNPLA3-Yc (from UniProt Q91WW7 1-413) (natural protein)
percent of transfected cells with BiFC: > 90%
